The record followed here is US20230212244A1 (IMMATICS BIOTECHNOLOGIES, published 2023).

This experiment has as its target T1, HLA-A*02:01 (human).
T1 construct: MHC class I monomer made peptide-receptive by UV cleavage of a UV-sensitive ligand; also called peptide-receptive MHC molecules
The experiment can be described thus: UV-ligand exchange ELISA (anti-β2m), peptide exchange yield grade. The text has this: Candidate peptides for T cell based therapies according to the present invention were further tested for their MHC binding capacity (affinity). The individual peptide-MHC complexes were produced by UV-ligand exchange, where a UV-sensitive peptide is cleaved upon UV-irradiation, and exchanged with the peptide of interest as analyzed. Only peptide candidates that can effectively bind and stabilize the peptide-receptive MHC molecules prevent dissociation of the MHC complexes. To determine the yield of the exchange reaction, an ELISA was performed based on the detection of the light chain (β2m) of stabilized MHC complexes. The assay was performed as generally described in Rodenko et al. (Rodenko et al., 2006).
96 well MAXISorp plates (NUNC) were coated over night with 2ug/ml streptavidin in PBS at room temperature, washed 4× and blocked for1h at 37° C. in 2% BSA containing blocking buffer. Refolded HLA-A*02:01/MLA-001 monomers served as standards, covering the range of 15-500 ng/ml. Peptide-MHC monomers of the UV-exchange reaction were diluted 100 fold in blocking buffer. Samples were incubated for 1h at 37° C., washed four times, incubated with 2 ug/ml HRP conjugated anti-β2m for 1h at 37° C., washed again and detected with TMB solution that is stopped with […]. Absorption was measured at 450 nm. Candidate peptides that show a high exchange yield (preferably higher than 50%, most preferred higher than 75 %) are generally preferred for a generation and production of antibodies or fragments thereof, and/or T cell receptors or fragments thereof, as they show sufficient avidity to the MHC molecules and prevent dissociation of the MHC complexes.

As to ALDSSNSMQTI [peptide ALDSSNSMQTI (SEQ ID NO: 52)], the peptide exchange yield lay in the range of 20 to 50%.
Consider SLIEYEFRV [peptide SLIEYEFRV (SEQ ID NO: 89)], for which the peptide exchange yield is 50 to 75%.
Under GLLKPGLNVVL (also called …) [peptide GLLKPGLNVVL (SEQ ID NO: 90)] stands 50 to 75%.
Under LLFDAPDLRL [peptide LLFDAPDLRL (SEQ ID NO: 87)] stands 50 to 75%.
Under WIDDTSAFV [peptide WIDDTSAFV (SEQ ID NO: 92)] stands 50 to 75%; under KVFPGKISV [peptide KVFPGKISV (SEQ ID NO: 86)], 20 to 50%; under KLLEVDLDTV [peptide KLLEVDLDTV (SEQ ID NO: 99)], 50 to 75%.
Consider KLLKLFQGV [peptide KLLKLFQGV (SEQ ID NO: 61)], for which the peptide exchange yield is 50 to 75%.
For KSMDIVLTV [peptide KSMDIVLTV (SEQ ID NO: 94)], the peptide exchange yield lay in the range of 50 to 75%.
QVWEIQHTV [peptide QVWEIQHTV (SEQ ID NO: 51)] returned a peptide exchange yield of 20 to 50%.
Under SLAADQLLKL [peptide SLAADQLLKL (SEQ ID NO: 79)] stands 20 to 50%; under AILDAHIEV [peptide AILDAHIEV (SEQ ID NO: 95)], no less than 75%; under NLLEKENYL [peptide NLLEKENYL (SEQ ID NO: 57)], 50 to 75%.
In turn, AMADKMDMSL [peptide AMADKMDMSL (SEQ ID NO: 58)] had a peptide exchange yield of 20 to 50%.
Under KTLGKLWRL [peptide KTLGKLWRL (SEQ ID NO: 64)] stands 20 to 50%; under YLLDYPNNLL [peptide YLLDYPNNLL (SEQ ID NO: 72)], 50 to 75%.
In turn, TVDVATPSV [peptide TVDVATPSV (SEQ ID NO: 91)] showed a peptide exchange yield of 50 to 75%.
Take SILQFVHMV [peptide SILQFVHMV (SEQ ID NO: 68)]: the peptide exchange yield lay within 50 to 75%.
For ALMLQGVDLL [peptide ALMLQGVDLL (SEQ ID NO: 8)] the value was 50 to 75%.
Under GMLNEAEGKAIKL [peptide GMLNEAEGKAIKL (SEQ ID NO: 69)] stands 20 to 50%.
Regarding YLAPENGYL [peptide YLAPENGYL (SEQ ID NO: 62)], the peptide exchange yield is 20 to 50%.
In turn, QVDEVVDIMRV (also called QVDEVVDIMRV) [peptide … (SEQ ID NO: 80)] came in with a peptide exchange yield of 20 to 50%.
As to FLLGSEIKL [peptide FLLGSEIKL (SEQ ID NO: 53)], the peptide exchange yield fell in the range of 50 to 75%.
Under WLFDDGGLTL [peptide WLFDDGGLTL (SEQ ID NO: 5)] stands no less than 75%; under SMVEDITGLRL [peptide SMVEDITGLRL (SEQ ID NO: 84)], 50 to 75%; under FLAELPGSLSL [peptide FLAELPGSLSL (SEQ ID NO: 6)], 50 to 75%.
SLESKLTSV [peptide SLESKLTSV (SEQ ID NO: 44)] gave a peptide exchange yield of 50 to 75%.
For SLQELRLLL [peptide SLQELRLLL (SEQ ID NO: 93)] the value was no less than 75%.
The molecule VLDEDEPRFL [peptide VLDEDEPRFL (SEQ ID NO: 60)] yielded a peptide exchange yield of 20 to 50%.
Molecule SLLKRDFGA [peptide SLLKRDFGA (SEQ ID NO: 77)] showed a peptide exchange yield of 20 to 50%.
For AMNGKSFSV [peptide AMNGKSFSV (SEQ ID NO: 98)] the value was 20 to 50%; for ILHDINSDGVL [peptide ILHDINSDGVL (SEQ ID NO: 85)], 20 to 50%; for ILDDHLSRV [peptide ILDDHLSRV (SEQ ID NO: 9)], 20 to 50%.
In turn, GLSEGHTFQV [peptide GLSEGHTFQV (SEQ ID NO: 101)] had a peptide exchange yield of 50 to 75%.
On to ALAELLHGA [peptide ALAELLHGA (SEQ ID NO: 45)], for which the peptide exchange yield was 50 to 75%.
EMIENIQSV [peptide EMIENIQSV (SEQ ID NO: 75)]: the peptide exchange yield lay in the range of 20 to 50%.
For MISELEVRL [peptide MISELEVRL (SEQ ID NO: 70)] the value was 50 to 75%; for GLDDGPDFL [peptide GLDDGPDFL (SEQ ID NO: 66)], 20 to 50%.
KLYERCEVV (also called KLYERCEVV) [peptide KLYERCEW (SEQ ID NO: 47)] showed a peptide exchange yield of 20 to 50%.
Molecule QLYEEPDTKL [peptide QLYEEPDTKL (SEQ ID NO: 82)] registered a peptide exchange yield of 20 to 50%.
Under ALLSQQTHL [peptide ALLSQQTHL (SEQ ID NO: 81)] stands 50 to 75%.
For YLFDIAVSM [peptide YLFDIAVSM (SEQ ID NO: 73)] the value was 50 to 75%.
For KLFSILSTV [peptide KLFSILSTV (SEQ ID NO: 63)] the value was 20 to 50%; for ALDPELLLL [peptide ALDPELLLL (SEQ ID NO: 78)], 20 to 50%; for KLYSRLVYV [peptide KLYSRLVYV (SEQ ID NO: 96)], 20 to 50%.
Consider LTIEDGIFEV [peptide LTIEDGIFEV (SEQ ID NO: 83)], for which the peptide exchange yield lay within 50 to 75%.
For SLDDFLATA [peptide SLDDFLATA (SEQ ID NO: 100)] the value was 50 to 75%; for YLTRHLAVL [peptide YLTRHLAVL (SEQ ID NO: 7)], 20 to 50%; for RLWTEIPTAI [peptide RLWTEIPTAI (SEQ ID NO: 71)], 50 to 75%.
GLDDRYSLV [peptide GLDDRYSLV (SEQ ID NO: 46)]: the peptide exchange yield lay in the range of 50 to 75%.
For ALWWGVVTV (also called ALWWGWTV) [peptide ALWWGVVTV (SEQ ID NO: 97)] the value was 20 to 50%; for SLNDLEKDVMLL [peptide SLNDLEKDVMLL (SEQ ID NO: 67)], 50 to 75%; for VLFTDEGVPKFL [peptide VLFTDEGVPKFL (SEQ ID NO: 56)], 20 to 50%.
As for YLIGEKQHYL [peptide YLIGEKQHYL (SEQ ID NO: 76)], the peptide exchange yield lay in the range of 50 to 75%.
Under ALLNGEYLLAA [peptide ALLNGEYLLAA (SEQ ID NO: 54)] stands 50 to 75%; under TLDAAQPRV [peptide TLDAAQPRV (SEQ ID NO: 43)], 20 to 50%; under LLTDNVVKL [peptide LLTDNWKL (SEQ ID NO: 59)], 50 to 75%.
For YLMGFLHAV [peptide YLMGFLHAV (SEQ ID NO: 74)] the value was 50 to 75%; for KLDIKVETV [peptide KLDIKVETV (SEQ ID NO: 88)], no less than 75%; for TLMAEMHVV [peptide TLMAEMHW (SEQ ID NO: 50)], 50 to 75%.
In turn, FLDASDPAL [peptide FLDASDPAL (SEQ ID NO: 48)] showed a peptide exchange yield of 20 to 50%.
